In publication PMC2112199:

Target: Acanthamoeba actin (Acanthamoeba)

kon: 7.8e+06 M⁻¹ s⁻¹
Substance: Acanthamoeba actin (natural protein)
